Laboratory results: patent publication US9260500B2, “Peptide and use thereof” (Takeda Pharmaceutical Company Limited, priority 2009, dated 2016)
One block for each substance: values may come before it. Non-standard residues stand in square brackets, D forms with d. *: point of attachment. Lys(Me2) = CN(C)CCCC[C@H](N)C(=O)O; 4Pal = N[C@@H](Cc1ccncc1)C(=O)O; dHyp = O=C(O)[C@H]1C[C@H](O)CN1; Cha = N[C@@H](CC1CCCCC1)C(=O)O; hSer = N[C@@H](CCO)C(=O)O; Isobutyryl = CC(C)C(=O)*; dAze = O=C(O)[C@H]1CCN1; Abu = CC[C@H](N)C(=O)O; Aib = CC(C)(N)C(=O)O

Legend:
human Y2 receptor [1] = target: T1, human Y2 receptor (Homo sapiens, UniProt P49146); experiment: Receptor Binding Assay (RBA) for Human Y2, [125I]-PYY displacement on hY2R/CHO membrane fraction; settings: IC50 of test compound/IC50 of PYY(3-36) (PYY(3-36) taken as 1)
T1 construct: expressed in transfected cells; membrane fraction
T1 sequence (P49146 1-381): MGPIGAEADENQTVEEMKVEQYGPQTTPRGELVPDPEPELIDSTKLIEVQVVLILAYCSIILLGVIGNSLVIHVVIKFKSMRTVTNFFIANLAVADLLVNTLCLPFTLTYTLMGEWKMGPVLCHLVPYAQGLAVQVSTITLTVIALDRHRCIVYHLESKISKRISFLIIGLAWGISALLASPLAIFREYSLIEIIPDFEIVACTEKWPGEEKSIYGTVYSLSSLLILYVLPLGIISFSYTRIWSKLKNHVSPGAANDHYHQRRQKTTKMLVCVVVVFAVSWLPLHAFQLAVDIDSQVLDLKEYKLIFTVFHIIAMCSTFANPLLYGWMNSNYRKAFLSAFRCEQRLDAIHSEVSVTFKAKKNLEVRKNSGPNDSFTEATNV
Description: (1) Construction of Expression Plasmid for the Human Y2 Receptor (Y2R) Gene
PCR was performed by a reaction using Pfu DNA polymerase ([…]), with a human brain cDNA (PT3158-1, Clontech) as the template, wherein synthetic DNAs with the following sequences were used as a combination of 5′ and 3′ primers, whereby the human Y2R gene was cloned. Primer 1 was prepared on the basis of base sequence information on the human Y2R gene (Refseq ID No. NM_000910) with the addition of Kozak's consensus sequence. Primer 2 was prepared on the basis of base sequence information on the human Y2R gene.
The PCR product obtained was cloned into pCR4-Blunt-TOPO (Invitrogen), and the plasmid was extracted according to a conventional method (QIAwell 8 Plus, QIAGEN). After confirming the base sequence, the human Y2R gene was re-cloned by a PCR reaction with the plasmid DNA as the template, using Primer 1 as the 5′ primer and Primer 2 as the 3′ primer. The PCR was performed using the Pyrobest DNA polymerase (TaKaRa). The PCR product obtained was re-cloned into pCR-Blunt II-TOPO (Invitrogen), and the plasmid was extracted according to a conventional method (QIAGEN). An Xho I restriction enzyme digestion site and an Spe I restriction enzyme digestion site are present in the cloning site of the pCR-Blunt II-TOPO; a plasmid clone was selected wherein the human Y2R gene was inserted in the orientation such that the Xho I restriction enzyme digestion site was positioned upstream of Primer 1, and the Spe I restriction enzyme digestion site was positioned downstream of Primer 2. After confirming the base sequence, the plasmid clone was digested with the restriction enzymes Xho I and Spe I to yield a DNA fragment. The DNA fragment was inserted into the animal cell expression vector pAKKO-111H (the same plasmid as pAKKO-1.111H described in Biochem. Biophys. Acta, Hinuma, S. et al., 1219, 251-259 (1994)), which was enzymatically digested with Sal I and Spe I, to yield the expression plasmid pAK-hY2R (pAKKO-111H/Y2R).
(2) Test Method: Receptor Binding Assay (RBA) for Human Y2
A human NPY2R (hY2R) stable expression cell line was acquired by transducing the animal cell expression plasmid pAK-hY2R into CHO/dhfr-cells using the CellPhect Transfection kit (Amersham Pharmacia Biotech Co.). First, 240 μl of Buffer A (attached to the CellPhect Transfection kit) was added to 9.6 μg of the plasmid DNA dissolved in 240 μl of distilled water; this mixture was stirred and allowed to stand for 10 minutes, after which 480 μL of Buffer B (attached to the CellPhect Transfection kit) was added, and the mixture was vigorously stirred to form a liposome containing the DNA. 2.5×10^5 or 4×10^5 CHO/dhfr− cells (obtained from ATCC) were seeded to 60 mm petri dishes, and cultured in Ham's F-12 medium (Sigma Co.) containing 10% fetal bovine serum (BioWest Co.) at 37° C. in 5% gaseous carbon dioxide for 1 day, after which 480 μL of the liposome was added drop by drop on to the cells in each petri dish. This was cultured at 37° C. in 5% gaseous carbon dioxide for 6 hours, after which the cells were twice washed with serum-free Ham's F-12 medium; 3 mL of 15% glycerol was added onto the cells in the petri dish and treated for 2 minutes. This was again washed 3 times with serum-free Ham's F-12 medium, after which the cells were cultured in Ham's F-12 medium containing 10% fetal bovine serum at 37° C. in 5% gaseous carbon dioxide. The cells were dispersed by trypsinization and recovered from the petri dishes, and seeded to a 6-well plate at 2.5×10^4 or 4×10^4 cells per well; cultivation was begun in Dulbecco's modified Eagle medium <DMEM> medium (Sigma Co.) containing dialyzed 10% fetal bovine serum (Invitrogen Co.) at 37° C. in 5% gaseous carbon dioxide. Since plasmid-introduced transformant CHO cells grow in the medium, whereas cells without plasmid introduction die gradually, about 20 colonies of transformed CHO cell that had grown 9-13 days after the start of the cultivation were isolated. […]

human Y2 receptor [2] = target: T1, human Y2 receptor; experiment: Human Y2 Receptor G Protein Binding Assay (GBA), [35S]GTPγS; format: biochemical; settings: EC50 of test compound/EC50 of PYY(3-36) (PYY3-36 taken as 1), hY2R/CHO membrane fraction
Description: (3) Test Method: Human Y2 Receptor G Protein Binding Assay (GBA)
The agonist activity of the compound of the present invention against the human Y2 receptor was measured by the method described below.
2 μL of the test compound, serially diluted with DMSO from 100 μM to 1 nM, was dispensed to a 96-well plate, and 100 μL of the membrane fraction, previously diluted with an assay buffer (50 mM Tris, 5 mM MgCl2, 150 mM NaCl, […], 0.03% NaN3, 0.1% BSA, pH 7.4) to 1 μg protein/mL, was dispensed thereto, subsequently, 100 μL of a [^35S]GTPγS (NEG030H, PerkinElmer, previously diluted with the assay buffer to 1 nM) was added, and they were mixed by pipetting. After incubation at room temperature for 120 minutes, the mixture was filtered through the cell harvester FilterMate (PerkinElmer) using the UniFilter-96 GF/C (PerkinElmer), and the filter was washed 3 times with a filtering buffer (50 mM Tris, 5 mM MgCl2, 150 mM NaCl, 0.03% NaN3, 0.05% CHAPS, pH 7.4). Thereafter, UniFilter-96 GF/C was dried in a mechanical drier for 1 hour, 15 μl of the liquid scintillator MicroScint O (PerkinElmer) was added to each well, and a measurement was taken using TopCount (PerkinElmer). The data obtained were analyzed using Prism to calculate the EC50 value. The agonist activity of the test compound was expressed as a ratio to the EC50 value of PYY3-36 taken as 1 (EC50 Ratio: EC50 of test compound/EC50 of PYY(3-36)). The results are shown in the GBA column in Table 5 (Table 5-1-Table 5-10).

Substance: Isobutanoyl-[Abu26, Cha27,28,36, His30, Aib31]-PYY(25-36) (Isobutyryl-R[Abu][Cha][Cha]NH[Aib]TRQR[Cha]-NH2; SMILES CC[C@H](NC(=O)[C@H](CCCNC(=N)N)NC(=O)C(C)C)C(=O)N[C@@H](CC1CCCCC1)C(=O)N[C@@H](CC1CCCCC1)C(=O)N[C@@H](CC(N)=O)C(=O)N[C@@H](Cc1c[nH]cn1)C(=O)NC(C)(C)C(=O)N[C@H](C(=O)N[C@@H](CCCNC(=N)N)C(=O)N[C@@H](CCC(N)=O)C(=O)N[C@@H](CCCNC(=N)N)C(=O)N[C@@H](CC1CCCCC1)C(N)=O)[C@@H](C)O) [compound No. 92]
RBA IC50 Ratio (human Y2 receptor [1]): 22
GBA EC50 Ratio (human Y2 receptor [2]): 20

Substance: Ac-[Glu23, D-Hyp24, Pya(4)26, Cha27,36, Aib28,31, Lys30]-PYY(23-36) (Ac-E[dHyp]R[4Pal][Cha][Aib]NK[Aib]TRQR[Cha]-NH2; SMILES CC(=O)N[C@@H](CCC(=O)O)C(=O)N1C[C@@H](O)C[C@@H]1C(=O)N[C@@H](CCCNC(=N)N)C(=O)N[C@@H](Cc1ccncc1)C(=O)N[C@@H](CC1CCCCC1)C(=O)NC(C)(C)C(=O)N[C@@H](CC(N)=O)C(=O)N[C@@H](CCCCN)C(=O)NC(C)(C)C(=O)N[C@H](C(=O)N[C@@H](CCCNC(=N)N)C(=O)N[C@@H](CCC(N)=O)C(=O)N[C@@H](CCCNC(=N)N)C(=O)N[C@@H](CC1CCCCC1)C(N)=O)[C@@H](C)O) [compound No. 208]
RBA IC50 Ratio (human Y2 receptor [1]): 3.4
GBA EC50 Ratio (human Y2 receptor [2]): 2.2

Substance: Ac-[D-Aze(2)24, Cha27,28,36, Aib31]-PYY(23-36) (Ac-S[dAze]RH[Cha][Cha]NL[Aib]TRQR[Cha]-NH2; SMILES CC(=O)N[C@@H](CO)C(=O)N1CC[C@@H]1C(=O)N[C@@H](CCCNC(=N)N)C(=O)N[C@@H](Cc1c[nH]cn1)C(=O)N[C@@H](CC1CCCCC1)C(=O)N[C@@H](CC1CCCCC1)C(=O)N[C@@H](CC(N)=O)C(=O)N[C@@H](CC(C)C)C(=O)NC(C)(C)C(=O)N[C@H](C(=O)N[C@@H](CCCNC(=N)N)C(=O)N[C@@H](CCC(N)=O)C(=O)N[C@@H](CCCNC(=N)N)C(=O)N[C@@H](CC1CCCCC1)C(N)=O)[C@@H](C)O) [compound No. 153]
RBA IC50 Ratio (human Y2 receptor [1]): 1.7
GBA EC50 Ratio (human Y2 receptor [2]): 1.3

Substance: Ac-[D-Pro24, Pya(4)26, Cha27,36, Aib28,31, Lys(Me2)30]-PYY(23-36) [compound No. 264]
RBA IC50 Ratio (human Y2 receptor [1]): 1.1
GBA EC50 Ratio (human Y2 receptor [2]): 1.7

Substance: Isobutanoyl-[Abu26, Cha27,28,36, Ser30, Aib31]-PYY(25-36) (Isobutyryl-R[Abu][Cha][Cha]NS[Aib]TRQR[Cha]-NH2; SMILES CC[C@H](NC(=O)[C@H](CCCNC(=N)N)NC(=O)C(C)C)C(=O)N[C@@H](CC1CCCCC1)C(=O)N[C@@H](CC1CCCCC1)C(=O)N[C@@H](CC(N)=O)C(=O)N[C@@H](CO)C(=O)NC(C)(C)C(=O)N[C@H](C(=O)N[C@@H](CCCNC(=N)N)C(=O)N[C@@H](CCC(N)=O)C(=O)N[C@@H](CCCNC(=N)N)C(=O)N[C@@H](CC1CCCCC1)C(N)=O)[C@@H](C)O) [compound No. 89]
RBA IC50 Ratio (human Y2 receptor [1]): 26
GBA EC50 Ratio (human Y2 receptor [2]): 28

The remaining lines, values ahead:

RBA IC50 Ratio (human Y2 receptor [1]): 1.2
GBA EC50 Ratio (human Y2 receptor [2]): 0.89
Substance: Ac-[Phe22, D-Pro24, Pya(4)26, Cha27,36, Aib28,31, Lys30]-PYY(22-36) (Ac-FS[dP]R[4Pal][Cha][Aib]NK[Aib]TRQR[Cha]-NH2; SMILES CC(=O)N[C@@H](Cc1ccccc1)C(=O)N[C@@H](CO)C(=O)N1CCC[C@@H]1C(=O)N[C@@H](CCCNC(=N)N)C(=O)N[C@@H](Cc1ccncc1)C(=O)N[C@@H](CC1CCCCC1)C(=O)NC(C)(C)C(=O)N[C@@H](CC(N)=O)C(=O)N[C@@H](CCCCN)C(=O)NC(C)(C)C(=O)N[C@H](C(=O)N[C@@H](CCCNC(=N)N)C(=O)N[C@@H](CCC(N)=O)C(=O)N[C@@H](CCCNC(=N)N)C(=O)N[C@@H](CC1CCCCC1)C(N)=O)[C@@H](C)O) [compound No. 275]

RBA IC50 Ratio (human Y2 receptor [1]): 2.5
GBA EC50 Ratio (human Y2 receptor [2]): 1.6
Substance: Ac-[Hse23, D-Pro24, Cha27,28,36, Aib31]-PYY(23-36) (Ac-[hSer][dP]RH[Cha][Cha]NL[Aib]TRQR[Cha]-NH2; SMILES CC(=O)N[C@@H](CCO)C(=O)N1CCC[C@@H]1C(=O)N[C@@H](CCCNC(=N)N)C(=O)N[C@@H](Cc1c[nH]cn1)C(=O)N[C@@H](CC1CCCCC1)C(=O)N[C@@H](CC1CCCCC1)C(=O)N[C@@H](CC(N)=O)C(=O)N[C@@H](CC(C)C)C(=O)NC(C)(C)C(=O)N[C@H](C(=O)N[C@@H](CCCNC(=N)N)C(=O)N[C@@H](CCC(N)=O)C(=O)N[C@@H](CCCNC(=N)N)C(=O)N[C@@H](CC1CCCCC1)C(N)=O)[C@@H](C)O) [compound No. 157]

RBA IC50 Ratio (human Y2 receptor [1]): 0.92
GBA EC50 Ratio (human Y2 receptor [2]): 1.3
Substance: Ac-[Lys(Me2)23, D-Pro24, Cha27,28,36, Aib31]-PYY(23-36) (Ac-[Lys(Me2)][dP]RH[Cha][Cha]NL[Aib]TRQR[Cha]-NH2; SMILES CC(=O)N[C@@H](CCCCN(C)C)C(=O)N1CCC[C@@H]1C(=O)N[C@@H](CCCNC(=N)N)C(=O)N[C@@H](Cc1c[nH]cn1)C(=O)N[C@@H](CC1CCCCC1)C(=O)N[C@@H](CC1CCCCC1)C(=O)N[C@@H](CC(N)=O)C(=O)N[C@@H](CC(C)C)C(=O)NC(C)(C)C(=O)N[C@H](C(=O)N[C@@H](CCCNC(=N)N)C(=O)N[C@@H](CCC(N)=O)C(=O)N[C@@H](CCCNC(=N)N)C(=O)N[C@@H](CC1CCCCC1)C(N)=O)[C@@H](C)O) [compound No. 160]
